Experimental data taken from paper PMC4605297.

Target: T1, SsOGT C29A C29A (Sulfolobus solfataricus) (UniProt Q97VW7)
T1 sequence: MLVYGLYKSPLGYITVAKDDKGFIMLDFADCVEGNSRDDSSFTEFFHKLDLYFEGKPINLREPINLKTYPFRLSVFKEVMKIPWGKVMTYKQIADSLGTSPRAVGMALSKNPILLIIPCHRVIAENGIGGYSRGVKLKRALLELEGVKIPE
Assay: competition
Settings: O6-methylguanine at position 26 of strand 1; EMSA: 0-25 uM protein, 0.2 uM probe, 37 C 10 min, 10 ul, buffer as ref. 17, 8% native PAGE in 1X TBE pH 8.3; competition: BG-VG assay, 50 C under ref. …

Work on “GGCAGTAGGCCTAGCATGACAATCTGCATTGGTGATCACGG / CGCTCATCCACAATGCAGATTGTCATGCTAGGCCTACTGCC [ds-Fwdm26]” yielded a Ki of 1030 nM.
